The results in this text go back to article PMC12102759.

Sequences and labels used below:
B1: NOTCH4 peptide 1604-1619 (Neurogenic locus notch homolog protein 4), 16-mer library wild type / NSP9 (ORF1ab Nsp9, residues 4141-4253) (parent)
chain 1: TFQGAWLGAPEPWEPL
chain 2: NNELSPVALRQMSCAAGTTQTACTDDNALAYYNTTKGGRFVLALLSDLQDLKWARFPKSDGTGTIYTELEPPCRFVTDTPKGPKVKYLYFIKGLNNLNRGMVLGSLAATVRLQ
B2: NYNRIN peptide 1032-1047 (Protein NYNRIN), 16-mer library wild type / NSP3 UBl1 (ORF1ab Nsp3a Ub1, residues 819-925) (parent)
chain 1: PSLSEEILRALSLHDP
chain 2: APTKVTFGDDTVIEVQGYKSVNITFELDERIDKVLNEKCSAYTVELGTEVNEFACVVADAVIKTLQPVSELLTPLGIDLDEWSMATYYLFDESGEFKLASHMYCSFY

The variants in one assay derive from B1. The settings on record: with NSP9 (ORF1ab Nsp9, residues 4141-4253); bait immobilised on MaxiSorp plates (10 µg), library pre-cleared on GST, 2 h binding at 4 °C, five washes; one round per day, days 1-4; value from days 2 and 3; keep out of graded; scale: average fractional NGS count over selection days 2 and 3.
In the case of chain 1 TFQGAWLGAPEPWEPV [chain 1 L16V], the screen value came to 0.

For the variant chain 1 TFQGAWLGAPEPWEPG [chain 1 L16G], the screen value was determined as 0.

As to chain 1 TFQGAWLGAPEPWEPT [chain 1 L16T], the screen value came to 0.

As for chain 1 TFQGAWLRAPEPWEPL [chain 1 G8R], the screen value is 0.

Regarding chain 1 TFQGAWLMAPEPWEPL [chain 1 G8M], the screen value is 0.

For chain 1 TFQGAWLKAPEPWEPL [chain 1 G8K], the screen value was 0.

Take chain 1 TFQGAWLVAPEPWEPL [chain 1 G8V]: the screen value is 0.

For the variant chain 1 TFQGAWLEAPEPWEPL [chain 1 G8E], the screen value was found to be 0.

For the variant chain 1 TFQGAWMGAPEPWEPL [chain 1 L7M], the screen value was 0.

For the variant chain 1 TFQGAWIGAPEPWEPL [chain 1 L7I], the screen value came to 0.

With chain 1 TFQGAWDGAPEPWEPL [chain 1 L7D], the screen value came to 0.

Consider chain 1 TFQGAWLGAPEPQEPL [chain 1 W13Q], for which the screen value was found to be 0.

Consider chain 1 TFQGAWLGAPEPTEPL [chain 1 W13T], for which the screen value stood at 4.47e-05.

On to chain 1 TFQGAWLGAPEPSEPL [chain 1 W13S], for which the screen value was determined as 2.43e-05.

In the case of chain 1 TFQGAWLGAPEPMEPL [chain 1 W13M], the screen value is 0.

Take chain 1 TFQGAWLGAPEPIEPL [chain 1 W13I]: the screen value turned out to be 3.37e-05.

Consider chain 1 TFQGAWLGAPEPFEPL [chain 1 W13F], for which the screen value came to 0.

For the variant chain 1 TFQGAWLGAPNPWEPL [chain 1 E11N], the screen value amounted to 0.

Consider chain 1 TFQGAWLGAPYPWEPL [chain 1 E11Y], for which the screen value is 0.

On to chain 1 TFQGAWLGAPLPWEPL [chain 1 E11L], for which the screen value was 0.

Take chain 1 TFQGAWLGAPHPWEPL [chain 1 E11H]: the screen value came to 0.

As for chain 1 TFQGAWLGAPSPWEPL [chain 1 E11S], the screen value worked out at 0.

As for chain 1 TFQGAWLGAPDPWEPL [chain 1 E11D], the screen value amounted to 0.

For chain 1 TFEGAWLGAPEPWEPL [chain 1 Q3E], the screen value turned out to be 2.09e-05.

Turning to chain 1 TFVGAWLGAPEPWEPL [chain 1 Q3V], the screen value came out at 0.

As for chain 1 TFLGAWLGAPEPWEPL [chain 1 Q3L], the screen value is 0.

In the case of chain 1 TFQGAWLGAPEPWQPL [chain 1 E14Q], the screen value was 0.

chain 1 TFQGAWLGAPEPWGPL [chain 1 E14G]: the screen value is 0.

On to chain 1 TFQGAWLGAPEPWHPL [chain 1 E14H], for which the screen value stood at 0.

Consider chain 1 TFQGAWLGAPEPWLPL [chain 1 E14L], for which the screen value turned out to be 7.93e-05.

Turning to chain 1 TFQGAWLGAPEPWVPL [chain 1 E14V], the screen value was 0.000155.

For chain 1 TFQGAWLGAPEPWFPL [chain 1 E14F], the screen value came to 3.92e-05.

As to chain 1 TFQGAWLGAPEKWEPL [chain 1 P12K], the screen value came to 8.35e-05.

As for chain 1 TFQGAWLGAPERWEPL [chain 1 P12R], the screen value was found to be 8.09e-05.

Take chain 1 TFQGAWLGAPEQWEPL [chain 1 P12Q]: the screen value is 3.5e-05.

Take chain 1 TFQGAWLGAPEWWEPL [chain 1 P12W]: the screen value amounted to 0.

Take chain 1 TFQGAWLGAPEHWEPL [chain 1 P12H]: the screen value was 9.54e-05.

For the variant chain 1 TFQGAWLGAPEVWEPL [chain 1 P12V], the screen value stood at 0.000373.

As to chain 1 TFQGAWLGAPEYWEPL [chain 1 P12Y], the screen value came out at 2.09e-05.

For the variant chain 1 TFQGAWLGAPEFWEPL [chain 1 P12F], the screen value came to 1.76e-05.

Consider chain 1 TFQGAWLGAPEAWEPL [chain 1 P12A], for which the screen value stood at 3.02e-05.

As for chain 1 TFQGAWLGAPETWEPL [chain 1 P12T], the screen value turned out to be 0.

chain 1 TFQGANLGAPEPWEPL [chain 1 W6N]: the screen value stood at 0.

For the variant chain 1 TFQGAILGAPEPWEPL [chain 1 W6I], the screen value is 0.

As to chain 1 TFQYAWLGAPEPWEPL [chain 1 G4Y], the screen value worked out at 0.

In the case of chain 1 TFQDAWLGAPEPWEPL [chain 1 G4D], the screen value was found to be 0.

Take chain 1 TFQVAWLGAPEPWEPL [chain 1 G4V]: the screen value was 0.

As for chain 1 TFQRAWLGAPEPWEPL [chain 1 G4R], the screen value is 0.

With chain 1 TFQLAWLGAPEPWEPL [chain 1 G4L], the screen value amounted to 0.

Regarding chain 1 TFQPAWLGAPEPWEPL [chain 1 G4P], the screen value came out at 0.

Turning to chain 1 TFQGTWLGAPEPWEPL [chain 1 A5T], the screen value was determined as 0.

Regarding chain 1 TFQGFWLGAPEPWEPL [chain 1 A5F], the screen value turned out to be 4.11e-05.

Consider chain 1 TFQGVWLGAPEPWEPL [chain 1 A5V], for which the screen value worked out at 0.000292.

On to chain 1 TFQGKWLGAPEPWEPL [chain 1 A5K], for which the screen value amounted to 0.

As for chain 1 TFQGLWLGAPEPWEPL [chain 1 A5L], the screen value was 5.68e-05.

Turning to chain 1 TFQGDWLGAPEPWEPL [chain 1 A5D], the screen value is 0.

With chain 1 TFQGSWLGAPEPWEPL [chain 1 A5S], the screen value turned out to be 0.

Consider chain 1 TFQGGWLGAPEPWEPL [chain 1 A5G], for which the screen value came out at 0.

Take chain 1 TFQGEWLGAPEPWEPL [chain 1 A5E]: the screen value was determined as 0.

With chain 1 TFQGAWLGMPEPWEPL [chain 1 A9M], the screen value is 0.

Take chain 1 TFQGAWLGWPEPWEPL [chain 1 A9W]: the screen value amounted to 4.99e-05.

For the variant chain 1 TFQGAWLGPPEPWEPL [chain 1 A9P], the screen value was determined as 0.

Take chain 1 TFQGAWLGAWEPWEPL [chain 1 P10W]: the screen value amounted to 0.00035.

As for chain 1 TFQGAWLGAEEPWEPL [chain 1 P10E], the screen value came to 4.5e-05.

Turning to chain 1 TFQGAWLGAIEPWEPL [chain 1 P10I], the screen value was 0.

Turning to chain 1 TFQGAWLGADEPWEPL [chain 1 P10D], the screen value stood at 0.

Take chain 1 TFQGAWLGALEPWEPL [chain 1 P10L]: the screen value turned out to be 0.

For chain 1 TFQGAWLGAGEPWEPL [chain 1 P10G], the screen value was 0.

For chain 1 TFQGAWLGAQEPWEPL [chain 1 P10Q], the screen value was 0.

In the case of chain 1 TFQGAWLGAAEPWEPL [chain 1 P10A], the screen value amounted to 0.

Regarding chain 1 TFQGAWLGAPEPWEYL [chain 1 P15Y], the screen value came to 0.

On to chain 1 TFQGAWLGAPEPWESL [chain 1 P15S], for which the screen value amounted to 0.

For chain 1 TAQGAWLGAPEPWEPL [chain 1 F2A], the screen value stood at 0.000265.

Take chain 1 TDQGAWLGAPEPWEPL [chain 1 F2D]: the screen value was 6.3e-05.

For chain 1 TLQGAWLGAPEPWEPL [chain 1 F2L], the screen value is 0.

For chain 1 TEQGAWLGAPEPWEPL [chain 1 F2E], the screen value is 3.22e-05.

For chain 1 TVQGAWLGAPEPWEPL [chain 1 F2V], the screen value was determined as 0.

Turning to chain 1 TIQGAWLGAPEPWEPL [chain 1 F2I], the screen value is 0.

chain 1 TGQGAWLGAPEPWEPL [chain 1 F2G]: the screen value is 5.47e-05.

For chain 1 TPQGAWLGAPEPWEPL [chain 1 F2P], the screen value came to 6.51e-05.

Take chain 1 TWQGAWLGAPEPWEPL [chain 1 F2W]: the screen value was determined as 0.

The variants in a further assay derive from B2. Particulars: with NSP3 UBl1 (ORF1ab Nsp3a Ub1, residues 819-925); bait immobilised on MaxiSorp plates (10 µg), library pre-cleared on GST, 2 h binding at 4 °C, five washes; one round per day, days 1-4; value from days 2 and 3; keep out of graded; scale: average fractional NGS count over selection days 2 and 3.
Take chain 1 PSLSEEDLRALSLHDP [chain 1 I7D]: the screen value was 0.

With chain 1 PSLSEETLRALSLHDP [chain 1 I7T], the screen value came to 0.

As to chain 1 PSLSEEILRALSLFDP [chain 1 H14F], the screen value came to 7.34e-06.

Turning to chain 1 PSLSEEILRALSLNDP [chain 1 H14N], the screen value was found to be 0.

Consider chain 1 PSLSEEILRALSLHEP [chain 1 D15E], for which the screen value turned out to be 0.

As to chain 1 PSLSEEILRALSLHKP [chain 1 D15K], the screen value turned out to be 0.

In the case of chain 1 PSLSEEILRALSLHGP [chain 1 D15G], the screen value is 0.

With chain 1 PSLSEEILRAHSLHDP [chain 1 L11H], the screen value was 0.

Consider chain 1 PSLSEQILRALSLHDP [chain 1 E6Q], for which the screen value stood at 2.97e-05.

As for chain 1 PSLSHEILRALSLHDP [chain 1 E5H], the screen value came out at 0.

As for chain 1 PSLSMEILRALSLHDP [chain 1 E5M], the screen value is 0.

In the case of chain 1 PSASEEILRALSLHDP [chain 1 L3A], the screen value amounted to 0.

In the case of chain 1 PSLSEEILRMLSLHDP [chain 1 A10M], the screen value amounted to 0.
